B1: HDV Ribozyme (parent)
chain: GGCCGGCAUGGUCCCAGCCUCCUCGCUGGCGCCGGCUGGGCAACAUUCCGAGGGGACCGUCCCCUCGGUAAUGGCGAAUGGGACCCA

In this data set the parent is B1. In words: self-cleavage, relative activity (ratio to wild type); higher = more cleavage; co-transcriptional.
For GUCCGGCAUGGUCCCAGCCUCCUCGCUGGCGCCGACUGGGCAACAUUCCGAGGGGACCGUCCCCUCGGUAAUGGCGAAUGGGACCCA, the self-cleavage was found to be 0.0308.
As to GUCCGGCAUGGUCCCAGCCUCCUCGCUGGCGCCGUCUGGGCAACAUUCCGAGGGGACCGUCCCCUCGGUAAUGGCGAAUGGGACCCA, the self-cleavage is 0.0318.
For the variant GGACGGCAUGGUCCCAGCCUCCUCGCUGGCGCGGGCUGGGCAACAUUCCGAGGGGACCGUCCCCUCGGUAAUGGCGAAUGGGACCCA, the self-cleavage amounted to 0.
With GGACGGCAUGGUCCCAGCCUCUUCGCUGGCGCCGGCUGGGCAACAUUCCGAGGGGACCGUCCCCUCGGUAAUGGCGAAUGGGACCCA, the self-cleavage came out at 0.15.
With GGACGGCAUGGUCCCAGCCUCAUCGCUGGCGCCGGCUGGGCAACAUUCCGAGGGGACCGUCCCCUCGGUAAUGGCGAAUGGGACCCA, the self-cleavage was determined as 0.0716.
Regarding GGACGGCAUGGUCCCAGCCUCCUCGUUGGCGCCGGCUGGGCAACAUUCCGAGGGGACCGUCCCCUCGGUAAUGGCGAAUGGGACCCA, the self-cleavage was 0.853.
For GGACGGCAUGGUCCCAGCCUCCUCGCUGGCGCCGGAUGGGCAACAUUCCGAGGGGACCGUCCCCUCGGUAAUGGCGAAUGGGACCCA, the self-cleavage was found to be 0.071.
On to GGACGGCAUGGUCCUAGCCUCCUCGCUGGCGCCGGCUGGGCAACAUUCCGAGGGGACCGUCCCCUCGGUAAUGGCGAAUGGGACCCA, for which the self-cleavage amounted to 0.371.
As to GUCCGGCAUGGUCCCAGCCUCCUCGCUGGCGCCGGCUGGGCAACAUUCCGAGGGGACCGUCCCCUCGGUAAUAGCGAAUGGGACCCA, the self-cleavage amounted to 0.0484.
As to GUCCGGCAUGGUCCCAGCCUCCUCGCUGGCGCCGGCUGGGCAACAUUCCGAGGGGACCGUCCCCUCGGUAAUGGCGAAGGGGACCCA, the self-cleavage came out at 0.
In the case of GUCCGGCAUGGUCCCAGCCUCCUCGCUGGCGCCGGCUGGGCAACAUUCCGAGGGGACCGUCCCCUCGGUAAUGGCGAAAGGGACCCA, the self-cleavage was 0.
For the variant GGACGGCAUGGUCCCAGCCUCCUCGCUGGCGCCGGCUGGGCAACAUUGCGAGGGGACCGUCCCCUCGGUAAUGGCGAAUGGGACCCA, the self-cleavage was 0.795.
With GGACGGCAUGGUACCAGCCUCCUCGCUGGCGCCGGCUGGGCAACAUUCCGAGGGGACCGUCCCCUCGGUAAUGGCGAAUGGGACCCA, the self-cleavage is 0.0329.
As for GUCCGGCAUGGUCCCAGCCUCCUCGCUGGCGCCGGCUGGGCAACAUUCCGAGGGGACCGUCCCCUCGGUAAUGGCGAAUGUGACCCA, the figure is 0.0198.
For the variant GUCCGGCAUGGUCCCAGCCUCCUCGCUGGCGCCGGCUGGGCAACAUUCCGAGGGGACCGUCCCCUCGGUAACGGCGAAUGGGACCCA, the self-cleavage stood at 0.0191.
To GGACGGCAUGGUCCCAGCCUCCUCGCUGGCGCCGGCUGGGCAACAUUCCGCGGGGACCGUCCCCUCGGUAAUGGCGAAUGGGACCCA belongs 0.374; to GUCCGGCAUGGUCCCAGCCUCCUCGCUGGCGCCGGCUGGUCAACAUUCCGAGGGGACCGUCCCCUCGGUAAUGGCGAAUGGGACCCA, 0.0132; to GUCCGGCAUGGUCCCAGCCUCCUCGCUGGCGCCGGCUGGGCAACAUUCCGAGGGUACCGUCCCCUCGGUAAUGGCGAAUGGGACCCA, 0.0654.
As to GUCCGGCAUGGUCCCAGCCUCCUCGCUGGCGCCGGCUGGGCAACAUUCCGAGGGGACCGUCCCCGCGGUAAUGGCGAAUGGGACCCA, the self-cleavage was 0.0782.
Regarding GUCCGGCAUGGUCCCAGCCUCCUCGCUGGCGCCGGCUGGGCAACAUUCCGAGGGGACCGUCCCCCCGGUAAUGGCGAAUGGGACCCA, the self-cleavage turned out to be 0.0391.
As for GGACGGCAUGGUCCCAGCCUCCUCGCUGGCGGCGGCUGGGCAACAUUCCGAGGGGACCGUCCCCUCGGUAAUGGCGAAUGGGACCCA, the self-cleavage was 0.0266.
In the case of GUCCGGCAUGGUCCCAGCCUCCUCGCUGCCGCCGGCUGGGCAACAUUCCGAGGGGACCGUCCCCUCGGUAAUGGCGAAUGGGACCCA, the self-cleavage amounted to 0.0252.
GGACGGCCUGGUCCCAGCCUCCUCGCUGGCGCCGGCUGGGCAACAUUCCGAGGGGACCGUCCCCUCGGUAAUGGCGAAUGGGACCCA: the self-cleavage was 0.299.
Regarding GGACGGCAUGGUCCCAGACUCCUCGCUGGCGCCGGCUGGGCAACAUUCCGAGGGGACCGUCCCCUCGGUAAUGGCGAAUGGGACCCA, the self-cleavage was 0.0282.
GGACGGCAUGGUCCCAGUCUCCUCGCUGGCGCCGGCUGGGCAACAUUCCGAGGGGACCGUCCCCUCGGUAAUGGCGAAUGGGACCCA: the self-cleavage worked out at 0.00889.
To GUCCGGCAUGGUCCCAGCCUCCUCGCUGGCGCCGGCUGGGCAACAUUCCGAGGGGACCGUCCCCUCGUUAAUGGCGAAUGGGACCCA belongs 0.134; to GUCCGGCAUGGGCCCAGCCUCCUCGCUGGCGCCGGCUGGGCAACAUUCCGAGGGGACCGUCCCCUCGGUAAUGGCGAAUGGGACCCA, 0.0346; to GUCCGGCAUGGCCCCAGCCUCCUCGCUGGCGCCGGCUGGGCAACAUUCCGAGGGGACCGUCCCCUCGGUAAUGGCGAAUGGGACCCA, 0.0241.
In the case of GGACGGCAUGGUCCCAGCGUCCUCGCUGGCGCCGGCUGGGCAACAUUCCGAGGGGACCGUCCCCUCGGUAAUGGCGAAUGGGACCCA, the self-cleavage stood at 0.0441.
Consider GGACGGCAUGGUCCCAGCCUCCUCGCUGGCGCCGGCUGGGCAACAUUCCGAGGGGACAGUCCCCUCGGUAAUGGCGAAUGGGACCCA, for which the self-cleavage was determined as 0.609.
On to GUCCGGCAUGGUCCCAGCCUCCUCGCUGGCGCCGGCUGGGCAACAGUCCGAGGGGACCGUCCCCUCGGUAAUGGCGAAUGGGACCCA, for which the self-cleavage is 0.0231.
In the case of GUCCGGCAUGGUCCCAGCCUCCUCGCUGGCGCCGGCUGGGCAACAAUCCGAGGGGACCGUCCCCUCGGUAAUGGCGAAUGGGACCCA, the self-cleavage turned out to be 0.0187.

The record behind these values is the RNAGym collection of RNA variant scans (doi:10.7554/elife.80360).
